Measurements reported in patent US20190338038A1 (CELLERANT THERAPEUTICS, published 2019).

T1: human interleukin 1 receptor accessory protein, membrane-bound form on cells (human, UniProt Q9NPH3 21-570)
T1 construct: On IL1-RAP-transfected 293 cells, AML cell lines (EOL-1, HNT-34, OCI-AML2, OCI-AML3), primary AML cells and HEK-Blue IL-1β cells; also called IL1-RAP; receptor IL1-RAP
T1 sequence: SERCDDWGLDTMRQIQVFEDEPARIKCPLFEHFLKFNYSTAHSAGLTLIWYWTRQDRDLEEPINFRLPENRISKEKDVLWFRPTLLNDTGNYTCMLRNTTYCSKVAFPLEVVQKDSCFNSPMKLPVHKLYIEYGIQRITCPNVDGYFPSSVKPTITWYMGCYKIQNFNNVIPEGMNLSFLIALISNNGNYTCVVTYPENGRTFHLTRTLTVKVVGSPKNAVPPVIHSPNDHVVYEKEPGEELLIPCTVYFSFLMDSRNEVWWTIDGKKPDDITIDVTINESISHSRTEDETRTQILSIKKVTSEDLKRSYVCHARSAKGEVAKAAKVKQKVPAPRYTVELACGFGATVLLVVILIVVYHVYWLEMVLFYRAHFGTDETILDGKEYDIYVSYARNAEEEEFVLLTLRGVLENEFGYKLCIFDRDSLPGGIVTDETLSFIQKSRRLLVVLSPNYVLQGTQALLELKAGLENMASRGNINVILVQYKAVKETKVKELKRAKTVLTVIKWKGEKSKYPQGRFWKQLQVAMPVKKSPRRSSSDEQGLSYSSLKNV

T2: soluble IL1-RAP form (isoform 2) (human, UniProt Q9NPH3 21-350)
T2 construct: Expressed in and purified from 293 cells; also called Q9NPH3-2; soluble form IL1RAP
T2 sequence: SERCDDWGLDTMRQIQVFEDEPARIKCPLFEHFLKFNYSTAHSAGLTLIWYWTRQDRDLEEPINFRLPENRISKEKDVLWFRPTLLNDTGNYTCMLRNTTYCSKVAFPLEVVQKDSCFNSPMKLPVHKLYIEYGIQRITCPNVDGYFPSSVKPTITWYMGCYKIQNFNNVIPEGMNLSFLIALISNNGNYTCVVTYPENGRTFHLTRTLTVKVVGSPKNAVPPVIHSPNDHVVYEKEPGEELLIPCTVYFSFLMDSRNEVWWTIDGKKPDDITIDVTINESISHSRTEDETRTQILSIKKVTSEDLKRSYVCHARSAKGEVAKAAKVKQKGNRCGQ

T3: his-tagged extracellular domain (ECD) of IL1-RAP (human, UniProt Q9NPH3 21-367)
T3 construct: also called ECD IL1-RAP; IL1-RAP-His fusion protein
T3 sequence: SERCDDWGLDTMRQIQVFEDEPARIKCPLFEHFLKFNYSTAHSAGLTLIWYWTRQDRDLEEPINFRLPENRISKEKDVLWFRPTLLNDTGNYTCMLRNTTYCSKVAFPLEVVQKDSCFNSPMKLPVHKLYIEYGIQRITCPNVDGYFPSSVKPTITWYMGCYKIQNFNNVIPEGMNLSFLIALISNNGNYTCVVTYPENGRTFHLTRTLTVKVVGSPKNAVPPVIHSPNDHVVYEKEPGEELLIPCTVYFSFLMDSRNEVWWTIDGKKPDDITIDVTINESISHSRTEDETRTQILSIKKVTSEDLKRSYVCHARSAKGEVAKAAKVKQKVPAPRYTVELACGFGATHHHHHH

T4: IL1-RAP (antigen of the kinetic measurements of Tables 5A and 5B) (human, UniProt Q9NPH3 21-359, limits assumed)
T4 sequence: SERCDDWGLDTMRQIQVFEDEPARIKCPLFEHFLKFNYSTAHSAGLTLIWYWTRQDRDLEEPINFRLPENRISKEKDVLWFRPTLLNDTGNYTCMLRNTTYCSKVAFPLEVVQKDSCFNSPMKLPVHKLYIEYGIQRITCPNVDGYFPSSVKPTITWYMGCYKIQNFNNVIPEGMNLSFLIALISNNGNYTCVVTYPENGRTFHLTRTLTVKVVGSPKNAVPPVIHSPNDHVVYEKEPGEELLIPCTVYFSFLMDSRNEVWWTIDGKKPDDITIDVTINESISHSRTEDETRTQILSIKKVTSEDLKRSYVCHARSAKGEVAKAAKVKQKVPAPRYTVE

B1: anti-IL1-RAP antibody clone 2H8 (antibody, V domains shown)
VH: QIQLVQSGPELKKPGETVKISCKASGYTFTDYSMHWVKQAPGKGLKWMGWINTETGEPTYADDFKGRFAFSLETSASTAYLQINNLKNEDTATYFCARYYGYFDYWGQGTTLTVSS
VL: DIVLTQSPASLAVSLGQRATISCRASESVDSYGNSFMHWYQQKPGQPPKLLIYRASNLESGIPARFSGSGSRTDFTLTINPVEADDVATYYCQQSNEDPWTFGGGTKLEIK
notes: Mouse monoclonal antibody; also called 2H8.3
B2: chimeric 54.9D7 (antibody, V domains shown)
VH: HVQLQQSGPELVRPGASVKLSCKASGYIFITYWMNWVKQRPGQGLEWVGQIFPASGTTYYNELFEGKATLTVDTSSNTAYMHLTSLTSEDSAVYYCARTDFYRYDGGYALDYWGQGTSLTVSS
VL: DIVLTQSPISLAVFLGQRATISCRASQSVSTSGYSSMHWYQQKAGQPPKLLIKYASDLESGVPVRFSGSGSGTDFILNIHPVEVEDIATYYCHHSWGIPMYTFGGGTKLEIKR
notes: Chimeric antibody; also called Chi54.9D7

What was measured:
[1] = biological target: T1, human interleukin 1 receptor accessory …; assay: FACS titration on EOL-1 cells
[2] = biological target: T2, soluble IL1-RAP form (isoform 2); assay: sandwich ELISA: plate coated with goat anti-IL1RAP antibody, then soluble IL1-RAP, then 2H8
Experimental: (§1) The extracellular domain of IL1-RAP (Q9NPH3-4) and soluble IL1-RAP form (Q9NPH3-2) were expressed and purified from 293 cells. Sandwich ELISA was performed. The binding data shown in FIGS. 3A and 3B supports the conclusion that clone 2H8 binds to membrane-bound IL1-RAP better compared to soluble IL1-RAP form.

[3] = biological target: T3, his-tagged extracellular domain (ECD) …; assay: sandwich ELISA: plate coated with goat anti-IL1RAP antibody, then extracellular domain of IL1-RAP, then 2H8
Experimental: as §1

[4] = biological target: T1, human interleukin 1 receptor accessory …; assay: FACS titration on HNT-34 cells
[5] = biological target: T1, human interleukin 1 receptor accessory …; assay: FACS titration on IL1-RAP transfected 293 cells
[6] = biological target: T4, IL1-RAP (antigen of the kinetic …); assay: kinetics, Table 5B; method and antigen form not stated
[7] = biological target: T1, human interleukin 1 receptor accessory …; assay: FACS titration on EOL-1 cells; remark: listed apart in the source
[8] = biological target: T1, human interleukin 1 receptor accessory …; assay: FACS on EOL-1 cells, FITC; antibody concentration not given
[9] = biological target: T4, IL1-RAP (antigen of the kinetic …); assay: kinetics, Table 5A; method and antigen form not stated; Table 5A
[10] = biological target: T4, IL1-RAP (antigen of the kinetic …); assay: kinetics, Table 5A; method and antigen form not stated
[11] = biological target: T4, IL1-RAP (antigen of the kinetic …); assay: kinetics, Table 5B; method and antigen form not stated; Table 5B

Binder | EC50 (read off the curve) [1] [µg/mL] | EC50 (read off the curve) [2] [µg/mL] | EC50 (read off the curve) [3] [µg/mL] | EC50 (read off the curve) [4] [µg/mL] | EC50 (read off the curve) [5] [µg/mL] | koff [6] [s⁻¹] | kon [6] [M⁻¹ s⁻¹] | EC50 (read off the curve) [7] [nM] | MFI [8] | Kd [9] [pM] | koff [10] [s⁻¹] | kon [10] [M⁻¹ s⁻¹] | Kd [11] [pM]
B1 | ~1 | ~1 | ~0.6 | ~0.5 | ~0.9 | – | – | – | – | – | – | – | –
B2 | – | – | – | – | – | < 1e-07 | 158000 | ~200 | 32.2 | < 1 | < 1e-07 | 143000 | < 1
